In patent publication US20070179094A1 (Bayer, published 2007):

Target: Rabbit anti-human MDL-1 polyclonal antibodies
Test: cell-based or functional assay

B1: human MDL-1 extracellular domain protein expressed in baculovirus (receptor)
chain: PQIFNKSNDGFTTTRSYGTVSQIFGSSSPSPNGFITTRSYGTVCPKDWEFYQARCFFLSTSESSWNESRDFCKGKGSTLAIVNTPEKLKFLQDITDAEKYFIGLIYHREEKRWRWINNSVFNGNVTNQNQNFNCATIGLTKTFDAASCDISYRRICEKNAK
IC50 for inhibition of α-hMDL-1 pAb-induced β-galactosidase reporter signaling in the CD3zH912Z1 line: 0.1 nM
